Reference: the nanobody polyreactivity screen of Harvey et al. (2022)

Assay: yeast display, Sf9 membrane polyspecificity reagent, FACS + sequencing; frameworks hold sequencing errors
Procedure, shortened: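 A nanobody's polyreactivity label depends on the gate it was sorted from. Yeast display cells were stained with 10% biotinylated, detergent-solubilized Sf9 membrane reagent for 1 hour at 4 °C, enriched on streptavidin microbeads and sorted by FACS. The low and high (top ~1%) gates were set on anti-HA fluorescence for expression and streptavidin fluorescence for reagent binding.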

Sequence	polyreactivity (PSR sort gate)
QVQLVESGGGLVQAGGSLRLSCAASGRTFYYYAMGGYRQAPGKERELVAAISKSATRTYYADSVKGRFTISRDNAKNTVYLQMNSLKPEDTAVYYCATGQYLRTSRYYYWGQGTQVTVSS	high polyreactivity
QVQHVESVGGLVQAGGSLPLSCDASGSIFGPNAMGWYRQAPGKESELVAAISGSGGSTYYADSVKGRFTISRDNAKNTVYLQMNSLKPEATAVYYCAADLDGTLSVYDYHTTGDDYWGQGTQVTVSS	low polyreactivity
QDQLVESGGGLVQAGGSLRLSSAASGRIFKWNAMGWYRPAPGTERQLVAAIRWSGTSTYADSVKGRFTISRDNAKNTVYLHMNSLKPEDTAVYYCAAQDVSAPGWWLHYWGQGTQVTVSS	low polyreactivity
QVQLVESGGGLVQAGGRLRLSCVASGSIFSGNAMGWYRQARGKERELVAAITRSGTSTYYADSVKGRFTISRDNAKNTVYLQMNSVKPEDTAVYYCATQYGRQRRAMYYWGQGTQVTVTS	high polyreactivity
QVQLVESGGGLVQAGGSLRLSCAASGSIFYPYAMGWYRKAPGKERELVAAIRRSGVDTYYADSVKGRFTISRDYAKNTYNLQMISLKPEDTAVYYCAADPYWFFAHYDSWGQGTQVTVSS	low polyreactivity
QVQLVESVGGLVQAGGSLRLSCAASGFTFHAYAMGWYRQAPGKERELVAVITRGGSTYYADSVKRRFTISLDNAKNTVYLQMKSLKPEDTAVYYCAAVRTKDWRGPEMDYWGQGTQVTVSS	high polyreactivity
QVQLVESGGGLVQAGGSLRLSCAASGGTIDNAMGWYRQAPGKERELVAAISKHGGRTYYADSVKGRFTISRDNAKNTVYLQMNSLKAEDTAVYYCAADAFRGFFWGQGTQVTVSS	high polyreactivity
QVQLVESGGGLVQAGGSLRLSCAASGFIIYFNAMGWYRQPRGKERELVASITSGASTNYADSVKGRFTISRDNAKNTVYLQMNSLKPEDTAVYYCAAAYFWLDPYVEYDYWGQGTQVTVSS	low polyreactivity
QVQLVESGGGLVQAGGSLRLSCAASGFTFGSYAMGWYRQAPGKEREFVAAIRRSGSSTYYADSVKGRFTISRDYAKNTVYLQMNSLKPEDTAVYYCAADVYRRLRRYRYYYWGQGTQVTVSS	low polyreactivity
QVQRVESAGGLVQAGGSLRISCAASGSTLYKYAMGWYRQAPGKERELVAAISWSGSSTYYADSVKGRFTISRDNAKNTVYLQMNSLKPVDTAVYYCAAYPRPYIVYTDGYVWYEFDYWGQGTQVTVSS	low polyreactivity
QVQLVESGGGLVQAGGILRLSCAASGRTFNQNAMGWYRQAPGKERELVAAITSRGGSTFYAASVKGRFTISRDNAKNTVYLQMNSLKPEDTAVDYCAAPRKQLEVGPGYYWGQGTQVTVSS	high polyreactivity
QVQIVESGGGLVQAGGSLRLSCAASGSIFYRYAMGWYRQAPGKERQLVAAISSGGTTSYADSVKGRFTISRDNAKNTVYLQMNSLKPEDTAVYYCAAFAYGYRYKTYDYWGQGTQVTVSS	high polyreactivity
QVQLVESGGGLVQAGGSLRLSCAASGSIFTVYAMGWYRQAPGKERELVASISKSGGSTYYADSVKGRFTISRDNAKNTVYLQMNSLKPEDTAVYYCAAESGRTYSHRHYDSWGQGTQVTVSS	low polyreactivity
QVQLVESGGGLVQAGGSLRLSCAASGSTLRGYVMGWYRQAPGTERELVAAITQRAGSTYYADSVKGRFTISRDNAKNTVYLQMNSLKPEDTAVYYCRRFYFGKYDYWGQGTQVTVSS	high polyreactivity
QVQLVESGGGLVQSGGSLRLSCAASGRIFSYYTIGWYRHEPGKEREIVAAITWSGGSTYYADSVKGRFTISRDNAKNTVFLQLNRLKPEDTAVYYCNRVAPHDLRNRQEDNYWGQGTQVTVSS	low polyreactivity
QVQLVESGAGLVQAGGSLRLSCAASGYTFYFYAMGWYRQAPGKERELVAAITGGGTTSYADSVKGRFTISRDNAKNTVYLQMNSLKPEDTAVYYCNVLFADKSDYCGQGTQVTVSS	low polyreactivity

Sequence	polyreactivity (PSR sort gate)
QVQLVESGGGLVQAGGSHRLSCAASGFIFVRNAMGWYRQAPGKERELVAAISSSGGSTNYADSVKGRFTISRDNAKNTVYLQMNSLKPEDTAVYYCNVVTFRYYYKYGYWGQGTQVTVSS	high polyreactivity
QVQLVESGGGLVQAGGSLLLSCAASGITFPKYAMGWYRQAPGKERELVAAITKSGGSTYYADSVKGRFTISRDHAKNTVYFQMNSLKPEDTAVYYYAARPRYGEYDYWGQGTQVTVSS	high polyreactivity
QVQLVESGGGLVQAGGSLRLSCAASGFIFDYSAMGWYRQAPGKERELVAAISHSGGTTYYADSVKGRFTISRDKAKNTVYLQMNSLKPEDTAVYYCNALYRKDFNSEYDYWGPGTQVTVSS	high polyreactivity
QVQLVESGGGLVQAGGSLRLSCAASGRIFRYNAMGWYRQAPGKEWELVAAIRFSGGSTYYADSVKGRFTLSRDNAKNTVYLHMNSLKPEDTAVYYCAKVYFRVQSGMDYWGQGTQVTVST	low polyreactivity
QVQLVESGGGLVQARGSLRLSCAASGSIIDYYAMGWYRQAPGKERELVAAINISGGDTYYADSVKGRFTISRDNAKNTVYLQMNSLKPEDTAVYYCNADRFYIDYSNTYDSIRDYWGQGTQVSVSS	low polyreactivity
QVQLVESGGGLVQAGGRLRISCAATGSTSVRNAMGWSRQGPGKESELVAGISRGGGITYYADSVKGRFTISRDNAKNTVYLQMNILKTEDTAVYYCAAVYYVDYPDGNYEYWGQGTQVTVSS	high polyreactivity
QVQLVESGGGLVQAGGSLRLSCAASGFTFLNYDMGWYRQAPGKERELVAAISRSDGITYYADSVKGRFTISRDNAKNSVYLHMNSLKPEDTAVYYCAAERDTPVGVPGYEYYYWGQGTQVTVSS	high polyreactivity
QVQLVESGGGLVQAGGSLRLSCAASGLIFVANAMGWYRQAPGKERELVAAISRSGGITTYADSVKGRFTISRDNAKNTVYLQMNSLKPEDTAVYYCAADTDPNPLIDYTLPMDYWGQGTQVTVSS	low polyreactivity
QVQLVETGGGLVQAGGSLRLSCAASGRTFWYYAMGWYRQAPVTERELVAYADSVKGRFTISRDNAKNTVYLQMNSLKPEDTAVYYCAVGPVVWFSSSLYYTDYYYWGQGTEVTVSS	low polyreactivity
QVQLVESGGGLVQAGGSLRLSCAASGITFYIYAMGWYRQAPGKERELVATISWSDGRTYYADSVKGRFTISRDNAKNTVYCQMNSLKPEDTAVYYCAADWWYYQFDYEYWGQGTQVTVSS	low polyreactivity
QVQLVESGGGLVQAGGSLRLSCAASGFTFYNYAMGWYRQAPGKERELVAAISYSGGSTYYADSVKGRFTISRDNAKNTVYLQMNSLKPEDTAVYYCAVVWWIQYVPGSYHAGYYWGQGTQVTVSS	high polyreactivity
QVQLVESGGGLDQAGGSLRLSCADSGYTFRAYAMGWYRQAPGKERELVAAITRSGTSTYYADSVKGRFTISRDNAKNTVYLQMNSLKPEDTAVYYCNVDVYLYAKEYDYWGQGTQVTVSS	high polyreactivity
QVQLVESAGGLVQAGGSLSLICAASGIIFGGNAMGWSRQAPGKERELVAAISRSGGSTYYADSVKGRFTISRDNAKNTVYLQMTSLKPEDTAVYYCNAYYRYFRSIYDSCGQGTQVTVSS	high polyreactivity
QVQLVESGGVLVQSGVSLRLTCAASGITFNYNAMGWDSQAPGKERELVAAIRGSDSTTYYADSVKERFTISRDNAKNTVYLQMNSLKPEDTAVYYCAADYVQGFGFYYQWHYDYWGQGTQVTVSS	low polyreactivity
QVQLVESGGGLVQAGGSLRLSCAASGSTFVAYTMGWYRQAPGKERELVAAITKRGSSTYYADSVKGRFTISRDNAKNTVYLHMNSLKPEDTAVYYCAAARSLKSYEGDYWGQGTQVTVSS	high polyreactivity
